Source: patent US20040063641A1, “Use of growth hormone or a growth hormone secretagogue for promoting bone formation” (priority 1996, published 2004)

Tests used:
[1] = test system: distracted tibia (bone regenerate); test: Mechanical torsion testing of distracted tibia after callus distraction in mini-pigs; format: in vivo, Yucatan mini-pigs; details: r-pGH 100 μg/kg daily injection
Protocol: After sacrifice, the right and left limb were dissected. The soft tissue around the joints was removed, and the ends of the tibia were casted in Beracryl. The constructs were placed in a materials testing machine (Zwick, Ulm, Germany), and torsional moments were applied. Resulting displacements and torsional moments were recorded. The test was conducted with a speed of 30° per minute until failure. The system automatically terminated the test at a torque of […]. The final bone torsional strength of a mini-pig group treated with growth hormone was investigated relative to a control group. 30 mature female Yucatan mini-pigs were equally distributed into two treatment groups. Mini-pigs in the study group received a daily injection of recombinant porcine growth hormone (r-pGH: 100 μg/kg), the mini-pigs in the control group received sodium chloride as placebo. The left tibiae and fibulae were osteotomized and stabilized with an external fixator. Full weight bearing was permitted. The legs were distracted twice daily at 2 mm/day for 10 days and then allowed to consolidate for 10 days. After sacrifice, torsional moments were applied to the distracted and the contralateral tibia in a material testing machine and the maximum torsional moment was determined. Four animals were removed from the study due to bone infection or surgery failure and data of 2 animals were lost due to test machine failure. A t-test was used to determine differences in maximum torsional moments between the treatment groups.

healing fracture = details: dogs treated with cST; no distraction; cited from earlier work

Molecule	maximum torsional moment in comparison to the intact contralateral tibia ([1]; at sacrifice, p<0.001 vs control) [%]	maximum torsional moment ([1]; distracted tibia at sacrifice, mean±SD, p=0.001 vs placebo) [Nm]	maximum torsional moment, higher than that of the placebo group ([1]; distraction 2 mm/day for 10 days, consolidation 10 days, at sacrifice, p=0.001) [%]	increase of stiffness of the healing fracture as compared to non-treated dogs (healing fracture) [fold]	increase of strength of the healing fracture as compared to non-treated dogs (healing fracture) [fold]
GH: recombinant porcine growth hormone (r-pGH), homologous GH given by daily injection to mini-pigs (protein, UniProt P01248 27-216, looked up) Somatotropin: FPAMPLSSLFANAVLRAQHLHQLAADTYKEFERAYIPEGQRYSIQNAQAAFCFSETIPAPTGKDEAQQRSDVELLRFSLLLIQSWLGPVQFLSRVFTNSLVFGTSDRVYEKLKDLEEGIQALMRELEDGSPRAGQILKQTYDKFDTNLRSDDALLKNYGLLSCFKKDLHKAETYLRVMKCRRFVESSCAF	64±22.4	19.5±7.8	131	–	–
cST: canine somatotropin, given to dogs in the cited study of Buonomo et al. (protein, UniProt P33711 27-216, looked up) Somatotropin: FPAMPLSSLFANAVLRAQHLHQLAADTYKEFERAYIPEGQRYSIQNAQAAFCFSETIPAPTGKDEAQQRSDVELLRFSLLLIQSWLGPVQFLSRVFTNSLVFGTSDRVYEKLKDLEEGIQALMRELEDGSPRAGQILKQTYDKFDTNLRSDDALLKNYGLLSCFKKDLHKAETYLRVMKCRRFVESSCAF	–	–	–	5	3
